The Immune Epitope Database (IEDB)

Tests used:
[1] = target: HLA-A*01:01; assay: IEDB peptide-MHC binding, purified MHC/direct/fluorescence; filed as Kd, often an IC50 or EC50 that approximates it; ≥ and ≤ were set here for values at or beyond the usual limits of such assays
[2] = target: HLA-A*02:01; assay: as above
[3] = target: HLA-A*11:01; assay: as above
[4] = target: HLA-A*26:02; assay: as above
[5] = target: HLA-A*26:03; assay: as above
[6] = target: HLA-A*31:01; assay: as above
[7] = target: HLA-A*68:02; assay: as above
[8] = target: HLA-A*69:01; assay: as above
[9] = target: HLA-B*07:02; assay: as above
[10] = target: HLA-B*08:01; assay: as above; settings: source organism: Vibrio cholerae V52
[11] = target: HLA-B*08:02; assay: as above
[12] = target: HLA-B*08:03; assay: as above; settings: source organism: Vibrio cholerae V52
[13] = target: HLA-B*15:09; assay: as above; settings: source organism: Vibrio cholerae V52
[14] = target: HLA-B*15:17; assay: as above
[15] = target: HLA-B*18:01; assay: as above
[16] = target: HLA-B*27:05; assay: as above
[17] = target: HLA-B*39:01; assay: as above
[18] = target: HLA-B*40:01; assay: as above; settings: source organism: Vibrio cholerae
[19] = target: HLA-B*44:02; assay: as above; settings: source organism: Vibrio cholerae
[20] = target: HLA-B*48:01; assay: as above
[21] = target: HLA-B*57:01; assay: as above
[22] = target: HLA-B*58:01; assay: as above
[23] = target: HLA-A*30:01; assay: IEDB peptide-MHC binding, purified MHC/competitive/fluorescence; filed as Kd, often an IC50 or EC50 that approximates it; ≥ and ≤ were set here for values at or beyond the usual limits of such assays; settings: source organism: Vibrio cholerae 2740-80
[24] = target: HLA-A*02:12; assay: IEDB peptide-MHC binding, purified MHC/direct/fluorescence; filed as Kd, often an IC50 or EC50 that approximates it; ≥ and ≤ were set here for values at or beyond the usual limits of such assays
[25] = target: HLA-A*02:16; assay: as above
[26] = target: HLA-A*02:19; assay: as above
[27] = target: HLA-A*03:01; assay: as above
[28] = target: HLA-A*24:03; assay: as above
[29] = target: HLA-A*29:02; assay: as above; settings: source organism: Burkholderia mallei ATCC 23344
[30] = target: HLA-B*27:03; assay: as above
[31] = target: HLA-B*15:01; assay: as above
[32] = target: HLA-B*15:02; assay: as above; settings: source organism: Aracatuba virus
[33] = target: HLA-B*46:01; assay: as above
[34] = target: HLA-B*15:17; assay: IEDB peptide-MHC binding, purified MHC/competitive/fluorescence; filed as Kd, often an IC50 or EC50 that approximates it; ≥ and ≤ were set here for values at or beyond the usual limits of such assays; settings: source organism: Vaccinia virus
[35] = target: HLA-B*35:01; assay: as above; settings: source organism: Vaccinia virus
[36] = target: HLA-A*02:03; assay: IEDB peptide-MHC binding, purified MHC/direct/fluorescence; filed as Kd, often an IC50 or EC50 that approximates it; ≥ and ≤ were set here for values at or beyond the usual limits of such assays
[37] = target: HLA-A*02:11; assay: as above
[38] = target: HLA-A*26:01; assay: as above
[39] = target: HLA-B*35:01; assay: as above
[40] = target: HLA-B*51:01; assay: as above; settings: source organism: Vibrio vulnificus CMCP6
[41] = target: HLA-A*02:01; assay: IEDB peptide-MHC binding, purified MHC/competitive/fluorescence; ≥ and ≤ were set here for values at or beyond the usual limits of such assays
[42] = target: HLA-A*24:02; assay: as above
[43] = target: HLA-B*08:01; assay: as above
[44] = target: HLA-B*07:02; assay: as above; settings: source organism: Zaire ebolavirus
[45] = target: HLA-B*15:01; assay: as above; settings: source organism: Zaire ebolavirus
[46] = source organism: Vibrio cholerae
[47] = source organism: Vibrio cholerae V52
[48] = source organism: Burkholderia mallei ATCC 23344
[49] = source organism: Aracatuba virus
[50] = source organism: Vibrio vulnificus CMCP6
[51] = source organism: Salmonella enterica subsp. enterica serovar Typhimurium
[52] = source organism: Vaccinia virus Copenhagen
[53] = source organism: Zaire ebolavirus

REVFDYLLP
Kd [1, 46]: ≥ 20 µM
Kd [2, 46]: ≥ 20 µM
Kd [3, 46]: ≥ 20 µM
Kd [4, 47]: ≥ 20 µM
Kd [5, 47]: ≥ 20 µM
Kd [6, 46]: ≥ 20 µM
Kd [7, 46]: ≥ 20 µM
Kd [8, 46]: ≥ 20 µM
Kd [9, 46]: ≥ 20 µM
Kd [10]: ≥ 20 µM
Kd [11, 47]: ≥ 20 µM
Kd [12]: ≥ 20 µM
Kd [13]: ≥ 20 µM
Kd [14, 46]: ≥ 20 µM
Kd [15, 46]: ≥ 20 µM
Kd [16, 46]: ≥ 20 µM
Kd [17, 47]: ≥ 20 µM
Kd [18]: 77 nM
Kd [19]: ≥ 20 µM
Kd [20, 46]: ≥ 20 µM
Kd [21, 46]: ≥ 20 µM
Kd [22, 46]: ≥ 20 µM
Kd [23]: ≥ 20 µM

MSADNAGAL
Kd [2, 48]: ≥ 20 µM
Kd [24, 48]: ≥ 20 µM
Kd [25, 48]: ≥ 20 µM
Kd [26, 48]: ≥ 20 µM
Kd [27, 48]: ≥ 20 µM
Kd [28, 48]: ≥ 20 µM
Kd [29]: ≥ 20 µM
Kd [15, 48]: ≥ 20 µM
Kd [30, 48]: ≥ 20 µM
Kd [21, 48]: ≥ 20 µM

LLLLISLVY
Kd [1, 49]: ≥ 20 µM
Kd [2, 49]: ≥ 20 µM
Kd [3, 49]: ≥ 20 µM
Kd ([4]; source organism: Variola virus): ≥ 20 µM
Kd ([5]; source organism: Variola virus): ≥ 20 µM
Kd [6, 49]: ≥ 20 µM
Kd [7, 49]: ≥ 20 µM
Kd [8, 49]: ≥ 20 µM
Kd [9, 49]: ≥ 20 µM
Kd ([11]; source organism: Variola virus): ≥ 20 µM
Kd [31, 49]: ≥ 20 µM
Kd [32]: 4.57 µM
Kd [16, 49]: ≥ 20 µM
Kd ([17]; source organism: Variola virus): ≥ 20 µM
Kd [33, 49]: ≥ 20 µM
Kd [20, 49]: ≥ 20 µM
Kd [21, 49]: ≥ 20 µM
Kd [22, 49]: ≥ 20 µM
Kd [34]: ≥ 20 µM
Kd [35]: ≥ 20 µM

EMSLADYLY
Kd [2, 50]: ≥ 20 µM
Kd [36, 50]: ≥ 20 µM
Kd [37, 50]: ≥ 20 µM
Kd [24, 50]: ≥ 20 µM
Kd [25, 50]: ≥ 20 µM
Kd [26, 50]: ≥ 20 µM
Kd [27, 50]: ≥ 20 µM
Kd [28, 50]: ≥ 20 µM
Kd [38, 50]: ≥ 20 µM
Kd [9, 50]: ≥ 20 µM
Kd [31, 50]: 0.029 µM
Kd [30, 50]: ≥ 20 µM
Kd [39, 50]: 27 nM
Kd [17, 50]: ≥ 20 µM
Kd [33, 50]: ≥ 20 µM
Kd [40]: ≥ 20 µM
Kd [21, 50]: ≥ 20 µM

WPVMQWLTA
Kd [2, 51]: ≥ 20 µM
Kd [36, 51]: ≥ 20 µM
Kd [37, 51]: ≥ 20 µM
Kd [24, 51]: ≥ 20 µM
Kd [25, 51]: ≥ 20 µM
Kd [26, 51]: ≥ 20 µM
Kd [27, 51]: ≥ 20 µM
Kd [38, 51]: ≥ 20 µM
Kd [9, 51]: 0.289 µM
Kd [31, 51]: 8 µM
Kd [14, 51]: ≥ 20 µM
Kd [15, 51]: ≥ 20 µM
Kd [30, 51]: ≥ 20 µM
Kd [39, 51]: 24 nM
Kd [33, 51]: ≥ 20 µM
Kd [21, 51]: ≥ 20 µM

YFLKIKVTA
IC50 [41, 52]: 6.34 µM
IC50 [42, 52]: 3.76 µM
IC50 [43, 52]: 8.88 µM

ERGVRLHPL
IC50 [42, 53]: 44.3 µM
IC50 [44]: ≥ 95.4 µM
IC50 [43, 53]: 8.92 µM

VMNHKNKFM
IC50 [41, 53]: 3.51 µM
IC50 [42, 53]: 2.14 µM
IC50 [43, 53]: 8.29 µM
IC50 [45]: 18 µM
